This data set is described as follows: yeast display, Sf9 membrane polyspecificity reagent, FACS + sequencing; frameworks hold sequencing errors. The essentials:
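Sorting gates, low and high (top ~1%), were placed on anti-HA fluorescence to track expression and on streptavidin fluorescence to track reagent binding. A clone's polyreactivity label is taken from the gate it came out of. The reagent was 10% biotinylated, detergent-solubilized Sf9 membrane, applied for 1 hour at 4 °C to galactose-induced yeast display cells.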
“QVQLVESGGGLVQAGGSLRLSCAASGSIFKYNAMGWYRQAPGKERELVAAIRWSGVGTRYADSVKGRFTISRDNAKNTVYLQMNSLKPEDTAVYYCAADVTKYHDGHEYDYWGQGTQVTVSS”: the “polyreactivity (PSR sort gate)” value is “low polyreactivity”.

On to “QVQLVESGGGLVQAGGSLRLSCAASGSIFKYYAMGWYRQAPGKERELVAAISNGGSTNYADSLKGRFTISRDNAKNTVYLQMNSLKPEDTAVYYCAAGWFGYSAKYDYWGQGTRVTVSS”, for which the “polyreactivity (PSR sort gate)” value is “high polyreactivity”.

As to “QVQLVESGGGLVQAGGSLRLSCAASGSIFKYYTMGGYRQAPGKERELVAAISGSGSRTYYADSVKGRFTISRDNAKNTVYLQMNSLKPEDTAVYYCAAEVKDSFVNAKSYYWGQGTQVTVSS”, the “polyreactivity (PSR sort gate)” value is listed as “high polyreactivity”.

Regarding “QVQLVESGGGLVQAGGSLRLSCAASGSIFKYYTMGWYRQAPGKERELVAAISGSGSRTYYADSVKGRFTISRDNAKNTVYLQMNSLKPEDTAVYYCAAEVKDSFVNAKSYYWGQGTQVTVSS”, the “polyreactivity (PSR sort gate)” value was “high polyreactivity”.

Take “QVQLVESGGGLVQAGGSLRLSCAASGSIFKYYTMGWYRQAPGKERELVSGISYRGGSTYYADSVKGRFTISRDNAKNTVYLQMNSLKPEDTAVYYCNAVQLSGGDYWGQGTQVTVSS”: the “polyreactivity (PSR sort gate)” value is “high polyreactivity”.

For “QVQLVESGGGLVQAGGSLRLSCAASGSIFLAYAMGWYRQAPGKERELVAAITAGTGSTYYADSVKGRFTISRDNAKNTVYLQMNSLKPEDTAVYYCAKAVSLFRGPFSSFDYWGQGTQVTVSS”, the “polyreactivity (PSR sort gate)” value is “low polyreactivity”.

In the case of “QVQLVESGGGLVQAGGSLRLSCAASGSIFLDNAKGWYRQAPGKERELVSAISSGGNTNYADSVKGRFTISRDNAKNTVSLQMNSLKPEDTAVYYCAADPTKWHYYVPRYYYWGQGTQVTVSS”, the “polyreactivity (PSR sort gate)” value was “low polyreactivity”.

Turning to “QVQLVESGGGLVQAGGSLRLSCAASGSIFLDYAMGWYRQAPGKERELVAGITISGGSTYYADSVKGRFTISRDNAKNTVYLQMNSLKPEDTSVYYCAKVAPRSSSSQEYYYWGQGTQVTVSS”, the “polyreactivity (PSR sort gate)” value was “low polyreactivity”.

Turning to “QVQLVESGGGLVQAGGSLRLSCAASGSIFLEYAMGWYRQAPGKERELVAAISSSGGSTYYADSVKGRFTISRDNAKYTVYLQMNSLKPEDTAVYYCAAGGHYYSSPGYNYWGQGTQVTVSS”, the “polyreactivity (PSR sort gate)” value is listed as “high polyreactivity”.

Turning to “QVQLVESGGGLVQAGGSLRLSCAASGSIFLGNALGWYRQAPGKERELVAAISRSGGRTYYADSVKGRFTISRDNAKNTVYLQMNSLKPEDTAVYYCAARSYGIYYAKEFYYWGQGTQVTVSS”, the “polyreactivity (PSR sort gate)” value is listed as “high polyreactivity”.

Take “QVQLVESGGGLVQAGGSLRLSCAASGSIFLGNAMGWYRQAPGKERELVAAISGGDSTNYADSVKGRFTISRDNAKNTVYLQMNSLKPEDTAVYYCAKDRPQEYDYWGQGTQVTVSS”: the “polyreactivity (PSR sort gate)” value was “low polyreactivity”.

On to “QVQLVESGGGLVQAGGSLRLSCAASGSIFLGNAMGWYRQAPGKERELVAAITSRGGRTYYADSVKGRFTISRDNAKNTVYLQMISLKPEDTAVYYCAADVSRPRAGFNYWGQGTQVTVSS”, for which the “polyreactivity (PSR sort gate)” value is reported as “high polyreactivity”.

Regarding “QVQLVESGGGLVQAGGSLRLSCAASGSIFLGNAMGWYRQAPGKERELVAAITWSGGSTTYADSVKGRFTISRDNAKNTVYLQMNSLKREDTAVYYCNASIYQRYDYWGQGTQVTVSS”, the “polyreactivity (PSR sort gate)” value is on record as “low polyreactivity”.

With “QVQLVESGGGLVQAGGSLRLSCAASGSIFLGYAMGWYRQAPGKERELVAAISWTGGSTYYADSVKGRFTISRDNAKNTVYLQMNSLTPEDTAVYYCAAEDQYGFDYWGQGTQVTVYS”, the “polyreactivity (PSR sort gate)” value is “high polyreactivity”.

With “QVQLVESGGGLVQAGGSLRLSCAASGSIFLGYTMGWSRQAPGKERELVAAINSSGGSTYYADSVKGRFTISRDNAKNTVYLQMNSLKPEDTAVYYCAVANSILLFDSWGQGTQVTVSS”, the “polyreactivity (PSR sort gate)” value was “low polyreactivity”.

Take “QVQLVESGGGLVQAGGSLRLSCAASGSIFLGYTMGWYRQAPGKERELVAAINSSGGSTYYADSVKGRFTISRDNAKNTVYLQMNSLKPEDTAVYYCADANSILLFDSWGQGTQVTVSS”: the “polyreactivity (PSR sort gate)” value is “low polyreactivity”.

On to “QVQLVESGGGLVQAGGSLRLSCAASGSIFLGYVMGWSRQAPGKERELVAAITNSGGSTYYADSVKGRFTISRDNAKNTVYLQINSLKPEDTAVYYCAADSITSKNQGLDYDYWGQGTQVTVSS”, for which the “polyreactivity (PSR sort gate)” value is “low polyreactivity”.

Consider “QVQLVESGGGLVQAGGSLRLSCAASGSIFLLNAMGWYRQAPGKERELVARIRINGGSTYYADSVKGRFTISRDNAKNTVYLKMNSLKPEDTAVYYCAADDTGPYSNWYDYWGQGTQVTVSS”, for which the “polyreactivity (PSR sort gate)” value is recorded as “low polyreactivity”.

As for “QVQLVESGGGLVQAGGSLRLSCAASGSIFLLYAMGGYRQAPGKERELVAAITRGGGSTYYADSVKGRFTISRDNAKNTVYLQMNSLKPEDTAVYYCAKGFQNHNGRLVVAYDYWGQGTQVTVSS”, the “polyreactivity (PSR sort gate)” value was “low polyreactivity”.

On to “QVQLVESGGGLVQAGGSLRLSCAASGSIFLLYAMGWYRQAPGKERELVAAISYSGGATYYADSVKGRFTISRDNAKYTVYLQMNILKPEDTAVYYCAAEAYDDYDYWGQGTQVTVSS”, for which the “polyreactivity (PSR sort gate)” value is recorded as “low polyreactivity”.

On to “QVQLVESGGGLVQAGGSLRLSCAASGSIFLLYAMGWYRQAPGKERELVARISWSGDNTRYADSVKGRFTISRDNAKNTVYLQMNSLKPEDTAVYYCNAYYFYGQWKGYDYWGQGTQVTVSS”, for which the “polyreactivity (PSR sort gate)” value is listed as “low polyreactivity”.

On to “QVQLVESGGGLVQAGGSLRLSCAASGSIFLPYAMGWYRQAPGKERELVAAIDTSSGSTYYADSVKGRFTISRDNAKNTVYLQMNSLKPEDTAVYYCNADYWVQGDDWLLYDYWGQGTQVTVSS”, for which the “polyreactivity (PSR sort gate)” value is “low polyreactivity”.

For “QVQLVESGGGLVQAGGSLRLSCAASGSIFLQNAMGWYRQAPGKERELVARITTSGGSTYYADSVKGRFTISRDNAKNTVYLPMNSQKPEDTAVYYCAVRSRRQRGGIRGFDYGGQGTQVTVSS”, the “polyreactivity (PSR sort gate)” value is recorded as “high polyreactivity”.

For the sequence “QVQLVESGGGLVQAGGSLRLSCAASGSIFLQYAMAWYRQAPGKERELVAAISWSGGSTYYAYSVKGRFTISRDNAKNTVYLQMNSLKPEDTAVYYCAAPITPYSHYRMDYWGQGTQVTVSS”, the “polyreactivity (PSR sort gate)” value is recorded as “low polyreactivity”.

Take “QVQLVESGGGLVQAGGSLRLSCAASGSIFLRNAMGWYRQAPGKERELVAAITYSSGSTYYADSVKGRFTISRDNAKNTVYLQMNSLKPEDTAVYYCAATSRSSRRYYYWGQGTQVTVSS”: the “polyreactivity (PSR sort gate)” value is listed as “high polyreactivity”.

On to “QVQLVESGGGLVQAGGSLRLSCAASGSIFLRYAMGWYRQAPGKERELVAAITTGGGSTYYADSVKGRFTISRDNAKNTVYLQMNSLKPEDTAVYYCAARIRQNPGGDNSWGQGTQVTVSS”, for which the “polyreactivity (PSR sort gate)” value is “low polyreactivity”.

Turning to “QVQLVESGGGLVQAGGSLRLSCAASGSIFLSNARGWYIQAPGKERELVADIDWTRGDTYYADSVKGRFTISRDNAKNTVYLQMNSLKPEDTAVYDCAADYGYRNLLTEYGYWGQGTEVTVSS”, the “polyreactivity (PSR sort gate)” value is “low polyreactivity”.

For the sequence “QVQLVESGGGLVQAGGSLRLSCAASGSIFLSYAMGWYRQAPGKERELVAAISGRGGSTYYADSVKGRFTISRDNAKNTGYLQMNSLKPEDTAVNYCASEQWGWYWYDYWGQGTQVTVSS”, the “polyreactivity (PSR sort gate)” value is recorded as “high polyreactivity”.

Turning to “QVQLVESGGGLVQAGGSLRLSCAASGSIFLTYAMGWYRQAPGKERELVAAISSSVGSTNYADSVKGRFTISRDNAKNTVYLQMNSLKPEDTAVYYCNATGVQYFLYGYWGQGTQVTVSS”, the “polyreactivity (PSR sort gate)” value is “low polyreactivity”.

As to “QVQLVESGGGLVQAGGSLRLSCAASGSIFLVNAMGWYRQAPGKERELVAAINSGGSTYYADSVKGRFTISRDNAKNTVYLQMNSLKPEDTAVYYCAADFWLKVWQDTDYDYDYWGQGTQVTVSS”, the “polyreactivity (PSR sort gate)” value is recorded as “low polyreactivity”.

Values taken from the nanobody polyreactivity screen of Harvey et al. (2022).
